Entries after “also recorded” stand apart in the source; their conditions may differ.
T1: NRP2/FLT4(VEGFR3) (Homo sapiens, UniProt O60462)
T1 construct: The complete extracellular domain and transmembrane helices of NRP2a (version 2), NRP2b (version 5); expressed in transfected cells; host or cells: Expi293, transient co-transfection
T1 sequence (O60462 23-859 isoform O60462-3 limits assumed): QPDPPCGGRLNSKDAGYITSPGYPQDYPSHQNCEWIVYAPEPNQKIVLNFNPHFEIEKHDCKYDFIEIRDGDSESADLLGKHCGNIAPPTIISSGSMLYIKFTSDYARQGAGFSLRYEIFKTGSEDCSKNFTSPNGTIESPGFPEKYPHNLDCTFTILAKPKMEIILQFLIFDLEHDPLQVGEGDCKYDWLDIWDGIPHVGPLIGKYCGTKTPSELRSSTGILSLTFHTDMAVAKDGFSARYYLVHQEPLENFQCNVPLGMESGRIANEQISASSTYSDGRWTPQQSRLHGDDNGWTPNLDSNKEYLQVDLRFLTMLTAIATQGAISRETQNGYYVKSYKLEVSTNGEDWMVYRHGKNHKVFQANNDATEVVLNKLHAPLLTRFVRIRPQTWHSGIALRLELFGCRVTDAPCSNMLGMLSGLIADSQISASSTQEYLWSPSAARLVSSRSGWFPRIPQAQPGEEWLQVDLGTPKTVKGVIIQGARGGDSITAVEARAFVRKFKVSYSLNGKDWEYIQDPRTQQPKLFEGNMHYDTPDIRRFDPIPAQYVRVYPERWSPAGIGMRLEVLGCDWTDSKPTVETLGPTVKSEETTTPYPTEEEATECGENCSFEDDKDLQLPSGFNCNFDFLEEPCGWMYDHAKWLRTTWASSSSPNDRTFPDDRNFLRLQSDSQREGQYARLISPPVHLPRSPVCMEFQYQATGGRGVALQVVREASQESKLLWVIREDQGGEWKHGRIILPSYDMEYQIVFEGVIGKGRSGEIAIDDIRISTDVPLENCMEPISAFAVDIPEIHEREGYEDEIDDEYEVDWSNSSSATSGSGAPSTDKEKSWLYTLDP

B1: aNRP2-10v10: humanized, affinity matured anti-NRP2 antibody, target domain b1, VEGF-C blocking; VH SEQ ID NO: 49, VL SEQ ID NO: 50 (antibody, V domains shown)
VH: EVQLVQSGAEVKKPGATVKISCKVSGFNIKDYYVHWVQQAPGKGLEWMGRIDVEDDETKYAPKFQGRVTITADTSTDTAYMELSSLRSEDTAVYYCATPIYGAREAWFAYWGQGTLVTVSS
VL: DIQMTQSPSSLSASVGDRVTITCTASSSVSSSYLHWYQQKPGKAPKLLIYRTSNLASGVPSRFSGSGSGTDFTLTISSLQPEDFATYYCHQYYRSPPTFGGGTKVEIK
modifications: Variable heavy chain region; Light chain variable region
B2: aNRP2-11v7: humanized, affinity matured anti-NRP2 antibody, target domain b2; VH SEQ ID NO: 51, VL SEQ ID NO: 52 (antibody, V domains shown)
VH: QVQLVQSGAEVKKPGASVKVSCKASGYTFTSFGISWVRQAPGQGLEWIGEIYPRSGNTYYNENFKGRATMTADKSTSTAYMELRSLRSDDTAVYYCARSSGYYGSTPFPYWGQGTLVTVSS
VL: DIQMTQSPSSLSASVGDRVTITCRASQDISNYLNWYQQKPGKAVKLLIYYTSRLHSGVPSRFSGSGSGTDYTFTISSLQPEDIATYYCQQGNTLPWTFGGGTKVEIK
modifications: Variable heavy chain region; Light chain variable region

Tests used:
[1] = system: phospho-Akt levels in U251 glioblastoma cells; test: Semaphorin 3F mediated inhibition of AKT phosphorylation in U251 cells; assay type: cell-based; conditions: antibody 10 μg/mL, 25 nM Sema3F 1 hour
Method: As shown schematically in FIG. 17, the treatment of cells with Sema3F should specifically block PI3K activity via NRP2 mediated interaction with plexin A1, thereby resulting in reduced phospho-Akt levels. To directly test the ability of the anti-NRP2 antibodies to block this effect, lysates were prepared following standard protocols (MesoScale Discovery, Phospho (Ser473)/Total Akt Assay Whole Cell Lysate Kit #K15100D). Serum starved and confluent U251 cells (Sigma, Cat. 09063001) were treated with 10 nM rapamycin (Sigma, Cat. 553211, 30 minutes), and blocking antibodies or controls were added (10 μg/mL, 30 minutes), followed by 25 nM Sema3F or serum free media for 1 hour in triplicate. Lysate protein concentrations were determined by BCA assay and samples were equalized to 0.4 mg/mL. Phospho and Total AKT were measured following the manufacturer's instructions and percent phosphorylation was calculated by dividing phosphorylated AKT relative units by total AKT relative units. Blocking of Sema3F for each antibody or control was determined by comparing percent phosphorylation of Sema3F treated cells to percent phosphorylation of non-Sema3F treated cells.

NRP2/FLT4(VEGFR3) = biological target: T1, NRP2/FLT4(VEGFR3); test: Split-luciferase receptor dimerization assay, NRP2/FLT4 with VEGF-C; assay type: cell-based; conditions: antibody 100 nM; ligand induced dimerization
Method: (§1) To further extend the assessment of the biological activity of the anti-NRP2 antibodies, their activity was assessed in a receptor dimerization assay. In brief, vectors encoding a split luciferase pBiT1.1 and pBiT2.1 were obtained from Promega corporation (Madison, Wisconsin). The complete extracellular domain and transmembrane helices of NRP2a (version 2), NRP2b (version 5) (See table N1), FLT4 (VEGFR3), KDR (VEGFR2), and plexin A1 (PLXNA1) were cloned into the vectors and screened for optimal orientation, receptor density, and ligand induced dimerization, following established methods. Expi293 cells (Fisher) were transfected at 1 million cells/mL ˜20 hours prior to the assay with NRP2 and a co-receptor at equal mass amounts. Cells were counted, and 100,000 live cells were plated in a well of a white luminometer plate in Live Cell Imaging Solution (Fisher). Nano-Glo assay substrate (Promega) was added, and the plate was read on a Glomax 96 luminometer at room temperature to establish baseline luminescence. Antibodies were added to the well at 100 nM and the plate was again read to establish a new baseline and monitor the effects of the antibodies on spontaneous receptor dimerization. Depending on the receptor pair, typically 200 nM SEMA3F-p95 (aTyr Pharma), 2 nM VEGF-C(R&D Systems, Minnesota), or 2 nM VEGF165 (R&D Systems, Minnesota) were then added and the plate was again read to measure dimerization of receptors. Normalized responses for each individual well were calculated to the time point prior to addition of ligand, then normalized to no-antibody/no-ligand (baseline signal). Replicates were then processed to give average response and standard deviation. Results are summarized in Table E3 below, and shown graphically in FIGS. 3-10.

[2] = system: human lymphatic endothelial cell (HLEC); test: HLEC migration toward VEGF-C (modified Boyden chamber, xCELLigence); assay type: cell-based; conditions: 191.5 pM VEGF-C, 24 hour period
Method: Migration assays were performed using a modified Boyden Chamber with […] pore size membrane, 16-well CIM plate (ACEA Biosciences.) Both sides of the membrane were coated with 5 μg/ml Fibronectin (Sigma) for 30 minutes at 37° C., 5% CO2. 160 μl of 191.5 pM VEGF-C or assay medium (0.1% BSA, ECM) was added to the lower chamber, the upper well attached, 50 ul assay medium added to the upper chamber before replacing the lid, and the plate was incubated for 1 hour at 37° C., 5% CO2 before baseline measurement was taken. HLECs were harvested, washed, and re-suspended in assay medium at 100,000 cells/well with aNRP2 antibody or control proteins and incubated for 30 minutes at 37° C., 5% CO2. Cells were added to the plate and incubated at room temperature for 30 minutes. Plate was inserted into xCELLigence RTCA DP (ACEA Biosciences) instrument, and migration was measured real-time every 5 minutes over a 24 hour period (2 wells per condition).

NRP2/PLXNA1 = test: Split-luciferase receptor dimerization assay, NRP2/PLXNA1 with SEMA3F; assay type: cell-based, human; conditions: antibody 100 nM; ligand induced dimerization
Method: as §1

Row | Molecule | blocking of the Sema3F induced decrease in intracellular phospho-Akt levels [1] | effect on NRP2-VEGFR3 (FLT4) heterodimerization (in words) (NRP2/FLT4(VEGFR3)) | migration of HLEC cells towards VEGF-C [2] | effect on NRP2-plexin heterodimerization (in words) (NRP2/PLXNA1)
1 | B1 | not blocked | potently inhibit | inhibited by both NRP2 antibodies to levels consistent with positive control antibodies; also recorded: effective block the migration of HLEC cells towards VEGF-C in a dose dependent manner | without significantly inhibiting
2 | B2 | blocked the reduction in phospho-Akt levels; also recorded: block semaphorin 3F mediated inhibition of AKT phosphorylation; also recorded: can be blocked | ability to inhibit | inhibited by both NRP2 antibodies to levels consistent with positive control antibodies; also recorded: effective block the migration of HLEC cells towards VEGF-C in a dose dependent manner | increased the ligand induced dimerization signal

Reference: patent publication US12410253B2, “Compositions comprising anti-NRP2 antibodies” (aTyr Pharma, Inc., priority 2019, dated 2025)
